{"source": "patent US20020177126A1", "about": "(published 2002)", "binders": {"B1": {"name": "SYNAGIS® (antibody, V domains shown)", "VH": "QVTLRESGPALVKPTQTLTLTCTFSGFSLSTSGMSVGWIRQPPGKALEWLADIWWDDKKDYNPSLKSRLTISKDTSKNQVVLKVTNMDPADTATYYCARSMITNWYFDVWGAGTTVTVSS", "VL": "DIQMTQSPSTLSASVGDRVTITCKCQLSVGYMHWYQQKPGKAPKLLIYDTSKLASGVPSRFSGSGSGTEFTLTISSLQPDDFATYYCFQGSGYPFTFGGGTKLEIK", "notes": "also called SYNAGIS ®/SYNAGIS ® (HC/LC)"}}, "key": {"[1]": {"target": "T1, F protein of wild type RSV A/Long (respiratory syncytial virus, strain …, UniProt P12568 26-574)", "assay": "cell-based or functional assay"}, "[2]": {"target": "T1, F protein of wild type RSV A/Long", "assay": "cell-based or functional assay", "remark": "listed apart in the source"}, "Bac-F": {"target": "Bac-F (UniProt P03420 26-524)", "assay": "BIAcore, Mab vs Bac-F, 1:1"}, "[3]": {"target": "F protein (RSV F glycoprotein immobilised on the BIAcore sensor chip) (respiratory syncytial virus (RSV), UniProt P03420 26-524)", "assay": "BIAcore, immobilised F protein"}, "[4]": {"target": "T2, F protein of RSV A/Long MARM B1 (respiratory syncytial virus, strain …, UniProt P12568 26-574)", "T2 construct": "whole, on cells", "assay": "IFA on MARM-infected HEp-2 cells"}, "[5]": {"target": "T3, F protein of RSV A/Long MARM B2 (respiratory syncytial virus, strain …, UniProt P12568 26-574)", "T3 construct": "whole, on cells", "assay": "IFA on MARM-infected HEp-2 cells"}, "[6]": {"target": "T4, F protein of RSV A/Long MARM B3 (respiratory syncytial virus, strain …, UniProt P12568 26-574)", "T4 construct": "whole, on cells", "assay": "IFA on MARM-infected HEp-2 cells"}, "[7]": {"target": "T5, F protein of RSV A/Long MARM B4 (respiratory syncytial virus, strain …, UniProt P12568 26-574)", "T5 construct": "whole, on cells", "assay": "IFA on MARM-infected HEp-2 cells"}, "[8]": {"target": "T6, F protein of RSV A/Long MARM B6 (respiratory syncytial virus, strain …, UniProt P12568 26-574)", "T6 construct": "whole, on cells", "assay": "IFA on MARM-infected HEp-2 cells"}, "[9]": {"target": "T7, F protein of RSV A/Long MARM B7 (respiratory syncytial virus, strain …, UniProt P12568 26-574)", "T7 construct": "whole, on cells", "assay": "IFA on MARM-infected HEp-2 cells"}, "[10]": {"target": "T8, F protein of RSV A/Long MARM B8 (respiratory syncytial virus, strain …, UniProt P12568 26-574)", "T8 construct": "whole, on cells", "assay": "IFA on MARM-infected HEp-2 cells"}, "[11]": {"target": "T9, F protein of RSV A/Long MARM B10 (respiratory syncytial virus, strain …, UniProt P12568 26-574)", "T9 construct": "whole, on cells", "assay": "IFA on MARM-infected HEp-2 cells"}, "[12]": {"target": "T10, F protein of RSV A/Long MARM B13 (respiratory syncytial virus, strain …, UniProt P12568 26-574)", "T10 construct": "whole, on cells", "assay": "IFA on MARM-infected HEp-2 cells"}, "[13]": {"target": "T11, F protein of RSV A/Long MARM B14 (respiratory syncytial virus, strain …, UniProt P12568 26-574)", "T11 construct": "whole, on cells", "assay": "IFA on MARM-infected HEp-2 cells"}, "[14]": {"target": "T12, F protein of RSV A/Long MARM B15 (respiratory syncytial virus, strain …, UniProt P12568 26-574)", "T12 construct": "whole, on cells", "assay": "IFA on MARM-infected HEp-2 cells"}, "[15]": {"target": "T13, F protein of RSV A/Long MARM #6 (selected with A4B4) (respiratory syncytial virus, strain …, UniProt P12568 26-574)", "T13 construct": "whole, on cells", "assay": "IFA on MARM-infected HEp-2 cells"}, "[16]": {"target": "T14, F protein of RSV A/Long MARM #9 (selected with A4B4) (respiratory syncytial virus, strain …, UniProt P12568 26-574)", "T14 construct": "whole, on cells", "assay": "IFA on MARM-infected HEp-2 cells"}, "[17]": {"target": "T15, F protein of RSV A/Long MARM #10 (selected with A4B4) (respiratory syncytial virus, strain …, UniProt P12568 26-574)", "T15 construct": "whole, on cells", "assay": "IFA on MARM-infected HEp-2 cells"}, "[18]": {"target": "T16, F protein of RSV A/Long MARM #11 (selected with A4B4) (respiratory syncytial virus, strain …, UniProt P12568 26-574)", "T16 construct": "whole, on cells", "assay": "IFA on MARM-infected HEp-2 cells"}, "[19]": {"target": "T17, F protein of RSV A/Long MARM B9 (respiratory syncytial virus, strain …, UniProt P12568 26-574)", "T17 construct": "whole, on cells", "assay": "IFA on MARM-infected HEp-2 cells"}, "[20]": {"target": "T18, F protein of MARM #13 (selected with A4B4 from MARM B9) (respiratory syncytial virus, strain …, UniProt P12568 26-574)", "T18 construct": "whole, on cells", "assay": "IFA on MARM-infected HEp-2 cells"}}, "note": "“And” between values parts separate entries of the source, which are not always exact repeats. Equal entries are not always repeated.", "data": [{"binder": "B1", "values": [{"measurement": "EC50, RSV (Long) microneutralization", "setting": "[1]", "value": 3.57, "unit": "nM"}, {"measurement": "Mean IC50 (Control), RSV microneutralization", "setting": "[2]", "value": 0.535, "unit": "µg/mL"}, {"measurement": "Mean IC50 (Curve), RSV microneutralization", "setting": "[2]", "value": 0.453, "unit": "µg/mL"}, {"measurement": "Kd", "setting": "Bac-F", "value": 3.9, "unit": "nM"}, {"measurement": "koff", "setting": "Bac-F", "value": 0.000515, "unit": "s⁻¹"}, {"measurement": "kon", "setting": "Bac-F", "value": 132000, "unit": "M⁻¹ s⁻¹"}, {"measurement": "number in parentheses after KD (fold vs SYNAGIS)", "setting": "Bac-F", "value": 1, "unit": "fold"}, {"measurement": "koff", "setting": "[3]", "value": "0.000764 s⁻¹ and 0.000738 s⁻¹ and 0.000702 s⁻¹"}, {"measurement": "kon", "setting": "[3]", "value": "204000 M⁻¹ s⁻¹ and 189000 M⁻¹ s⁻¹ and 218000 M⁻¹ s⁻¹"}, {"measurement": "binding result", "setting": "[4]", "value": "no binding (tested: 250 ng/ml)"}, {"measurement": "binding result", "setting": "[5]", "value": "no binding (tested: 250 ng/ml)"}, {"measurement": "binding result", "setting": "[6]", "value": "no binding (tested: 250 ng/ml)"}, {"measurement": "binding result", "setting": "[7]", "value": "no binding (tested: 250 ng/ml)"}, {"measurement": "binding result", "setting": "[8]", "value": "no binding (tested: 250 ng/ml)"}, {"measurement": "binding result", "setting": "[9]", "value": "no binding (tested: 250 ng/ml)"}, {"measurement": "binding result", "setting": "[10]", "value": "no binding (tested: 250 ng/ml)"}, {"measurement": "binding result", "setting": "[11]", "value": "no binding (tested: 250 ng/ml)"}, {"measurement": "binding result", "setting": "[12]", "value": "no binding (tested: 250 ng/ml)"}, {"measurement": "binding result", "setting": "[13]", "value": "no binding (tested: 250 ng/ml)"}, {"measurement": "binding result", "setting": "[14]", "value": "no binding (tested: 250 ng/ml)"}, {"measurement": "binding result", "setting": "[15]", "value": "no binding (tested: 250 ng/ml)"}, {"measurement": "binding result", "setting": "[16]", "value": "no binding (tested: 250 ng/ml)"}, {"measurement": "binding result", "setting": "[17]", "value": "no binding (tested: 250 ng/ml)"}, {"measurement": "binding result", "setting": "[18]", "value": "no binding (tested: 250 ng/ml)"}, {"measurement": "binding result", "setting": "[19]", "value": "no binding (tested: 250 ng/ml)"}, {"measurement": "binding result", "setting": "[20]", "value": "no binding (tested: 250 ng/ml)"}]}]}
